For 1 substance, fold binding relative to cleavable mHTT results are on record in publication PMC5839066.

The target in this experiment is RFP-p62 (UniProt Q13501). In words: co-IP; COS-7 cells cotransfected with HTT fragment and RFP-p62, 100 nM bafilomycin for 4 h; lysates in SDP buffer; p62 immunoprecipitated (anti-p62 MBL PM045) overnight at 4 °C; co-precipitated HTT blotted and normalised to input.

“HTT aa1-1212 138Q-C6R (domain or fragment)” gave a fold binding relative to cleavable mHTT of 2 fold.
